From patent publication US20170355775A1 (ELANCO TIERGESUNDHEIT, published 2017)
Each block holds one binder with its values, some of them ahead of it.

What was measured:
[1] = target: T1, canine CD20 ECD2 peptide (canine); assay: ELISA on canine CD20 ECD2 peptide (FIG. 5)
T1 peptide: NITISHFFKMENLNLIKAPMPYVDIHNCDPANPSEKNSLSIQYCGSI

[2] = target: T2, canine CD20 ECD2-mFc fusion protein (canine); assay: ELISA, antigen coated at 200 ng/well, antibody 5 ug/ml
T2 construct: also called cCD20 ECD2-mFc
T2 chain: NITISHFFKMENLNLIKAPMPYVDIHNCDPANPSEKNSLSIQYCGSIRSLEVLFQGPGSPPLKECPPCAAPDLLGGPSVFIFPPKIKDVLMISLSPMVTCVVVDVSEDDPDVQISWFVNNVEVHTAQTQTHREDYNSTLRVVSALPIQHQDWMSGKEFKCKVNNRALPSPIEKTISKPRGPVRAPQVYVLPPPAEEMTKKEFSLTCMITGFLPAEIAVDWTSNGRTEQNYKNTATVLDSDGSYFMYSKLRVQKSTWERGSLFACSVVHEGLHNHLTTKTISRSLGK
Description: (§1) This strategy- enabled identification of the specific sequences in canine CD20 that each mAb binds. Binding was tested using a standard ELISA protocol. Briefly, recombinant canine CD20 ECD2-mFc fusion protein and human/canine hybrid variants thereof were diluted in PBS and bound to a 96-well microtiter plate at 200 ng/well by overnight incubation at 4° C. The plate was rinsed three times with PBST buffer, blocked with a solution of 3% BSA in PBS for one hour at 37° C., then rinsed once with PBST. Mouse monoclonal antibodies 1E4, 1G1, and 1G10 were diluted to a concentration of 5 μg/ml in PBS and 50 μl of this dilution was applied to the plate for 1 hour at room temperature. The plate was then rinsed three times with PBST, and Jackson Immunoresearch goat anti-mouse-IgG light chain-specific HRP conjugate (#115-035-174) diluted to 1:5000 in PBS (50 μL) was added to each well, and the plate was incubated for 45 min at room temperature. The plate was washed three times with PBST, then 100 μl of SureBlueTMB substrate (KPL #52-00-03) was added to each well and the plate was incubated for about 10 min at room temperature. The plate was read at 650 nm in a spectrophotometer.

[3] = target: T3, Hum-Can CD20 ECD2 V3 (mFc fusion) (human/canine hybrid); assay: as above
T3 construct: Described as a hybrid version of the original immunogen CD20 ECD2-mFc
T3 chain: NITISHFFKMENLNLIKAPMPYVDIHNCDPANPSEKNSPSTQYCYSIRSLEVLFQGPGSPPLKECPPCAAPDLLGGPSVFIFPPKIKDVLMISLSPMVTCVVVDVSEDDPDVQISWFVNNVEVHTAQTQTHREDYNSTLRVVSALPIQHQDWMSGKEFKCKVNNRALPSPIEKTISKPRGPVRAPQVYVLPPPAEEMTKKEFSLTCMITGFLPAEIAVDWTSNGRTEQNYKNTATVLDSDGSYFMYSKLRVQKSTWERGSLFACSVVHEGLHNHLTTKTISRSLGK
Description: as §1

[4] = target: T4, canine CD20 on canine B cells / B cell lymphoma cells (canine, UniProt Q3C2E2 1-297); assay: FACS on canine B cell lymphoma cells expressing canine CD20
T4 construct: whole, on cells; Endogenous CD20 on canine cells
T4 sequence (looked up): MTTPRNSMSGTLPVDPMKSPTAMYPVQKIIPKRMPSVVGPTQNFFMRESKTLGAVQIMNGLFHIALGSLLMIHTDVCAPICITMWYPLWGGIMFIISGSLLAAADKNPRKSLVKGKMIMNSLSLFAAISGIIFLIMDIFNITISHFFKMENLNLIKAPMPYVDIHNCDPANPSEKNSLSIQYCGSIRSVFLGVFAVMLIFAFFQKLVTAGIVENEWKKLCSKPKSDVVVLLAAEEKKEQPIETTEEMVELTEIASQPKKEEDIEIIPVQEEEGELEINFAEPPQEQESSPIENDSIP
Description: The relative affinities of the mouse monoclonal antibodies 1E4, 1G1, and 1G10 for binding to canine CD20 was determined by fluorescent activated cell sorting (FACS) using canine B cell lymphoma cells, which express canine CD20.

[5] = target: T1, canine CD20 ECD2 peptide; assay: ELISA on canine CD20 ECD2 peptide
[6] = target: T5, Hum-Can CD20 ECD2 V2 (mFc fusion) (human/canine hybrid); assay: ELISA, antigen coated at 200 ng/well, antibody 5 ug/ml
T5 construct: Described as a hybrid version of the original immunogen CD20 ECD2-mFc
T5 chain: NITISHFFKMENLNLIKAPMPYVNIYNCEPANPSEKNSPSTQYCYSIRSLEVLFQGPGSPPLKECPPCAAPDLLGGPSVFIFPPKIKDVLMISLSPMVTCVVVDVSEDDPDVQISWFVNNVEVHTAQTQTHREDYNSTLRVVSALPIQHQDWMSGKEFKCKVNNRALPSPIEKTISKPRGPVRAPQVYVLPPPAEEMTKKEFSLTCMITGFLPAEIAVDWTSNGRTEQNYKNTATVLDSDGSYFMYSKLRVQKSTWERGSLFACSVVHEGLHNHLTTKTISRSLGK
Description: as §1

[7] = target: T6, Hum-Can CD20 ECD2 V4 (mFc fusion) (human/canine hybrid); assay: as above
T6 construct: Described as a hybrid version of the original immunogen CD20 ECD2-mFc
T6 chain: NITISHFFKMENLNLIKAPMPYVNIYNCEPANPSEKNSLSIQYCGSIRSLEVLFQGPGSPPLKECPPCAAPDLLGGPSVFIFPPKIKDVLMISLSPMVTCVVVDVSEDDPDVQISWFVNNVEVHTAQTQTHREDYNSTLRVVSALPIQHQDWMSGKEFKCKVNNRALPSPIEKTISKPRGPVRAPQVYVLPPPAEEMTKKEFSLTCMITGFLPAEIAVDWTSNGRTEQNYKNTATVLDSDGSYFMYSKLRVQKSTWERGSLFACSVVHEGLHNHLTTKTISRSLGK
Description: as §1

binding result [1]: binds
B1: 1E4-cIgGB with G34 to A substitution in VL (antibody, V domains shown)
VH: EVQLVESGGGLVKPGGSLKLSCAASGFTFSDYGMLWVRQAPEKGLEWIAYISSGSSTIYYADRVKGRFTISRDNAKNTLFLQMTSLRSEDTAMYYCSTGTFAYWGQGTPVTVSS
VL: DVVMTQNPLSLPVSLGDQASISCRSSQSLIYNNANTYLHWYRQKPGQSPKLLIYKVSNRFSGVPDRFSGSGSGTDFTLKISRVEAEDLGVYFCSQSTHVPFTFGSGTKLEIKR
notes: also called G34A

binding result [2]: binds | binding result [3]: binds | Kd [4]: 0.97 nM
B2: mouse monoclonal antibody 1E4 (antibody, V domains shown)
VH: EVQLVESGGGLVKPGGSLKLSCAASGFTFSDYGMLWVRQAPEKGLEWIAYISSGSSTIYYADRVKGRFTISRDNAKNTLFLQMTSLRSEDTAMYYCSTGTFAYWGQGTPVTVSS
VL: DVVMTQNPLSLPVSLGDQASISCRSSQSLIYNNGNTYLHWYRQKPGQSPKLLIYKVSNRFSGVPDRFSGSGSGTDFTLKISRVEAEDLGVYFCSQSTHVPFTFGSGTKLEIK
notes: Mouse monoclonal antibody from a hybridoma; also called 1E4-mAb; hybridoma antibody 1E4

binding result [5]: binds
B3: 1E4-cIgGB with N33 to R substitution in VL (antibody, V domains shown)
VH: EVQLVESGGGLVKPGGSLKLSCAASGFTFSDYGMLWVRQAPEKGLEWIAYISSGSSTIYYADRVKGRFTISRDNAKNTLFLQMTSLRSEDTAMYYCSTGTFAYWGQGTPVTVSS
VL: DVVMTQNPLSLPVSLGDQASISCRSSQSLIYNRGNTYLHWYRQKPGQSPKLLIYKVSNRFSGVPDRFSGSGSGTDFTLKISRVEAEDLGVYFCSQSTHVPFTFGSGTKLEIKR
notes: Whole antibody (heavy plus light chains) made 'using the above procedures'

binding result [1]: binds
B4: 1E4-cIgGB with G34 to Q substitution in VL (antibody, V domains shown)
VH: EVQLVESGGGLVKPGGSLKLSCAASGFTFSDYGMLWVRQAPEKGLEWIAYISSGSSTIYYADRVKGRFTISRDNAKNTLFLQMTSLRSEDTAMYYCSTGTFAYWGQGTPVTVSS
VL: DVVMTQNPLSLPVSLGDQASISCRSSQSLIYNNQNTYLHWYRQKPGQSPKLLIYKVSNRFSGVPDRFSGSGSGTDFTLKISRVEAEDLGVYFCSQSTHVPFTFGSGTKLEIKR
notes: also called G34Q

binding result [5]: binds
B5: 1E4-cIgGB with N33 to T substitution in VL (antibody, V domains shown)
VH: EVQLVESGGGLVKPGGSLKLSCAASGFTFSDYGMLWVRQAPEKGLEWIAYISSGSSTIYYADRVKGRFTISRDNAKNTLFLQMTSLRSEDTAMYYCSTGTFAYWGQGTPVTVSS
VL: DVVMTQNPLSLPVSLGDQASISCRSSQSLIYNTGNTYLHWYRQKPGQSPKLLIYKVSNRFSGVPDRFSGSGSGTDFTLKISRVEAEDLGVYFCSQSTHVPFTFGSGTKLEIKR
notes: as for B3

binding result [5]: binds
B6: 1E4-cIgGB with N33 to V substitution in VL (antibody, V domains shown)
VH: EVQLVESGGGLVKPGGSLKLSCAASGFTFSDYGMLWVRQAPEKGLEWIAYISSGSSTIYYADRVKGRFTISRDNAKNTLFLQMTSLRSEDTAMYYCSTGTFAYWGQGTPVTVSS
VL: DVVMTQNPLSLPVSLGDQASISCRSSQSLIYNVGNTYLHWYRQKPGQSPKLLIYKVSNRFSGVPDRFSGSGSGTDFTLKISRVEAEDLGVYFCSQSTHVPFTFGSGTKLEIKR
notes: as for B3

binding result [1]: binds
B7: 1E4-cIgGB with G34 to K substitution in VL (antibody, V domains shown)
VH: EVQLVESGGGLVKPGGSLKLSCAASGFTFSDYGMLWVRQAPEKGLEWIAYISSGSSTIYYADRVKGRFTISRDNAKNTLFLQMTSLRSEDTAMYYCSTGTFAYWGQGTPVTVSS
VL: DVVMTQNPLSLPVSLGDQASISCRSSQSLIYNNKNTYLHWYRQKPGQSPKLLIYKVSNRFSGVPDRFSGSGSGTDFTLKISRVEAEDLGVYFCSQSTHVPFTFGSGTKLEIKR
notes: also called G34K

binding result [5]: binds
B8: 1E4-cIgGB with N33 to Y substitution in VL (antibody, V domains shown)
VH: EVQLVESGGGLVKPGGSLKLSCAASGFTFSDYGMLWVRQAPEKGLEWIAYISSGSSTIYYADRVKGRFTISRDNAKNTLFLQMTSLRSEDTAMYYCSTGTFAYWGQGTPVTVSS
VL: DVVMTQNPLSLPVSLGDQASISCRSSQSLIYNYGNTYLHWYRQKPGQSPKLLIYKVSNRFSGVPDRFSGSGSGTDFTLKISRVEAEDLGVYFCSQSTHVPFTFGSGTKLEIKR
notes: as for B3

binding result [1]: binds
B9: 1E4-cIgGB with N33 to K substitution in VL (antibody, V domains shown)
VH: EVQLVESGGGLVKPGGSLKLSCAASGFTFSDYGMLWVRQAPEKGLEWIAYISSGSSTIYYADRVKGRFTISRDNAKNTLFLQMTSLRSEDTAMYYCSTGTFAYWGQGTPVTVSS
VL: DVVMTQNPLSLPVSLGDQASISCRSSQSLIYNKGNTYLHWYRQKPGQSPKLLIYKVSNRFSGVPDRFSGSGSGTDFTLKISRVEAEDLGVYFCSQSTHVPFTFGSGTKLEIKR
notes: also called N33K

binding result [2]: binds | binding result [6]: binds | binding result [3]: binds | binding result [7]: binds | Kd [4]: 19.8 nM
B10: mouse monoclonal antibody 1G1 (antibody, V domains shown)
VH: EVQLQQSGAELVRPGASVKLSCTASGFNIKDDYMHWVKQRPEQGLEWIGWIDPENGHTKYASKFQGKATITADTSSNTAYLQLSSLTSEDTAVYYCTSLRHYYGSSYVSPHYYWGQGTTLTVSS
VL: DIVMTQSQKFMSRSVGDRVSVTCKASQNVGPNVAWYQQRPGQSPKPLIYSASYRYSGVPDRFTGSGSGTDFTLTISNVQSEDLAEYFCQQYNNYPYTFGGGTKLEIK
notes: Mouse monoclonal antibody from a hybridoma; also called hybridoma antibody 1G1

binding result [2]: binds | binding result [3]: binds | Kd [4]: 0.29 nM
B11: mouse monoclonal antibody 1G10 (antibody, V domains shown)
VH: EVQLQQSGPELVKPGASVKISCKASGYTFTDYYMNWVKQSHGKSLEWIGDINPNNGDTSYNQKFKGKAPLTVDKSSSTAYMEVRSLTSEDSAVYFCARGGVLRYPYYYVMDYWGQGTSVTVSS
VL: DIVMTQAAPSVPVTPGESVSISCRSNKSLLHRNGNTYLYWFLQRPGQSPQLLIYRMSNLASGVPDRFSGSGSGTAFTLRISRVEAEDVGVYYCMQHLEFPFTFGGGTKLEIK
notes: Mouse monoclonal antibody from a hybridoma; also called hybridoma antibody 1G10
